Laboratory results published in patent publication US6897044 (Biogen, dated 2005).

T1: CD20 antigen (human, UniProt P11836 1-297)
T1 construct: whole, on cells; Carried by the cell lines SKW and SB (CD20+/CD23+) and DHL-4 (CD20+/CD23-); also called human CD20
T1 sequence (looked up): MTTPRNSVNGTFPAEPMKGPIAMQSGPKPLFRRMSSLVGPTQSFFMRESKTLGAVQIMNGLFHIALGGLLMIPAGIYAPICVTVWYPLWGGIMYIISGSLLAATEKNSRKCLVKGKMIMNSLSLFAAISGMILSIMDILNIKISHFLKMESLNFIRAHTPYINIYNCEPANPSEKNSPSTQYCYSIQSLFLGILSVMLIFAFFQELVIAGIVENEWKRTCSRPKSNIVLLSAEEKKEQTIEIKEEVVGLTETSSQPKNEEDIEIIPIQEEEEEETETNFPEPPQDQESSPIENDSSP


How the values were obtained:
CD20 antigen [1] = biological target: T1, CD20 antigen; test: competitive binding on SKW cells against murine 2B8, flow cytometry with FITC anti-human IgG (by the method, 2B8 was serially diluted and C2B8 fixed at 1 µg/ml)
Experimental: (§1) Binding of monomer and dimerized antibody to various cells was evaluated by indirect immunostaining using FITC anti-human IgG and analyzed using flow cytometry (indirect IF). Cells (2×10^6 viable cells in 0.1 ml cmfPB S/2% Fetal Calf Serum/0.1% Sodium Azide, PBS/FCS buffer) were incubated for one hour on ice with 0.1 ml of 5 fold serially diluted antibody. Cells were twice washed by centrifugation (200×g) using 2 ml PBS/wash and suspended in 0.2 ml FITC conjugated Goat (Fab')_2 anti-human IgG (Jackson Immunoresearch #30869, 5 µg/ml in PBSIFCS buffer). After 30-min. incubation on ice, cells were again washed in PBS and suspended in 0.2 ml 0.5% freshly diluted formaldehyde, capped and stored at 4° C. until analysis. The amount of cell bound antibody was determined by flow cytometry (FACScan, Becton-Dickenson, Mountain View, Calif.).
(§2) The binding affinity of the C2B8 homodimer and monomer for the CD20 antigen was compared using a competitive binding assay (FIG. 10). SKW cells were first incubated for 30 minutes on ice with various amounts of 5-fold serially diluted murine (anti-CD20) MAb 2B8, and by 0.1 ml (at 1 µg/ml) of either C2B8 monomer or homodimer. Indirect IF, as described for FIG. 9, evaluated the amount of C2B8 binding. […]

CD20 antigen [2] = biological target: T1, CD20 antigen; test: competitive binding on SKW cells against murine 2B8, flow cytometry with FITC anti-human IgG (by the method, 2B8 was serially diluted and homodimer fixed at 1 µg/ml)
Experimental: as §1, §2

Binder | IC50 (CD20 antigen [1]) | IC50 (CD20 antigen [2])
C2B8, mouse/human chimeric monoclonal antibody specific for CD20 (150 kDa IgG monomer) (antibody, V domains shown, also called C2B8 monomer; chimeric C2B8) VH: QVQLQQPGAELVKPGASVKMSCKASGYTFTSYNMHWVKQTPGRGLEWIGAIYPGNGDTSYNQKFKGKATLTADKSSSTAYMQLSSLTSEDSAVYYCARSTYYGGDWYFNVWGAGTTVTVSA VL: QIVLSQSPAILSASPGEKVTMTCRASSSVSYIHWFQQKPGSSPKRWIYATSNLASGVPVRFSGSGSGTSYSLTISRVEAEDAATYYCQQWTSNPPTFGGGAKLEIKR | 9.8 µg/mL | –
C2B8 (-s-s-) homodimer, disulfide linked IgG/IgG homodimer of C2B8/SH (300 kDa, tetravalent) (antibody, V domains shown, engineered cysteine near the carboxyl terminus of the gamma 1 chain (printed as position 444 and as position 445) joins the two IgG molecules by an intermolecular disulfide bond, also called C2B8 (disulfide linked) homodimer; C2B8 homodimer) VH: QVQLQQPGAELVKPGASVKMSCKASGYTFTSYNMHWVKQTPGRGLEWIGAIYPGNGDTSYNQKFKGKATLTADKSSSTAYMQLSSLTSEDSAVYYCARSTYYGGDWYFNVWGAGTTVTVSA VL: QIVLSQSPAILSASPGEKVTMTCRASSSVSYIHWFQQKPGSSPKRWIYATSNLASGVPVRFSGSGSGTSYSLTISRVEAEDAATYYCQQWTSNPPTFGGGAKLEIKR | – | 10.4 µg/mL
